According to paper PMC4923861:
Each block holds one substance with its values, some of them ahead of it.

Key:
[1] = biological target: CKK domain of mouse CAMSAP3/Marshalin-Ld (CKK1 or CKK2, not told for this experiment) (UniProt Q80VC9); experiment: GST pull-down; details: n = 4; parent: est. 1.0; read off a plot
[2] = biological target: CKK1, CKK domain construct of mouse CAMSAP3/Marshalin-Ld (residues 1020–1253) (mouse)
[3] = biological target: CAMSAP3/Marshalin-Ld, V5-His tagged (mouse) (UniProt Q80VC9)

response (relative intensity) [1]: 0.65
Substance: GST-CDH23-C_1–67 (first 67 residues of mouse CDH23-C; CKK binding motif, CBM) R55H

percent of OK cells with CKK1-induced MT bundles, CKK1 (V5-His) co-expressed with CDH23-C1-GFP, 44 to 68 hours after transfection (19.9% with GFP) [2]: 5.5%
decrease of the percent of OK cells with type III (long strings) CAMSAP3/Marshalin-Ld pattern on co-expression of CDH23-C1-GFP, against GFP (54.1% type III), 24 hours after co-transfection [3]: 21.3%
Substance: GST-tagged CDH23-C1 (mouse cadherin 23, C isoform, subtype 1) (natural protein)

decrease of the percent of OK cells with type III (long strings) CAMSAP3/Marshalin-Ld pattern on co-expression of CDH23-C2-GFP, against GFP (54.1% type III), 24 hours after co-transfection [3]: 20%
Substance: GST-tagged CDH23-C2 (mouse cadherin 23, C isoform, subtype 2) (natural protein)
